Assay results from the DeepSol protein solubility set.

test: soluble on expression in E. coli; label from the status in PepcDB or PDB records

Sequence | soluble on expression in E. coli
MREMTADPYLGKYITCVSARSTDKEILKKAQDGGIATALMVYALEEGIIDGTIVAGEGDRPWEPRPIVAMSREDILKARGTKYSISPQIAWLKEATRSFGLDKVGVTGVCCQMQAVRKAQLYPINMRDVPGKVALTVGLFCMENFPYKSLQTIVEDHAAQSLGSVKKMEITKGKFWVHTERGNVSTVPLKATHKYEQPGCHVCLDYVSSLADISTGSVGSPDGWSTVFIRTKKGNEVWSKAVAAGMFETKPIEDVKPGLELLTKLAKEKIDKNRKTLEERRNFGVNKALRDPYAAAALEHHHHHH | not soluble
MRETSSREDTNNIGKAPEMSGGTIMDTMTSLPHQNDQNVIRHLTNLVKSPASGDDDIKKKEDSIMELGNILAQNKQTEELRNMIEQTRPFLVSLGKAKAAKLVRDLVDLCLKIDDQDGDIKVGLVKECIQWATEQNRTFLRQTLTARLVRLYNDLQRYTQALPLAADLIRELKKVDDKDVLVEVELEESKAYYNLSNIGRARASLTGARTTANAIYVNPRMQAALDLQSGILHAADEKDFKTAFSYFYEAFEGYDSVDEKVSALTALKYMLLCKVMLDLPDEVNSLLSAKLALKYNGSDLDAMKAIAAAAQKRSLKDFQVAFGSFPQELQMDPVVRKHFHSLSERMLEKDLCRIIEPYSFVQIEHVAQQIGIDRSKVEKKLSQMILDQKLSGSLDQGEGMLIVFEIAVPDEAYQTALDTIHAMGEVVDALYSNASKIN | not soluble
MREVKAFVTQDIPLYHNLVMKHIPGADPELVLLNHYYEELDRIPLFEMTRAEINKLLAELGFYKKDHPEDQVPEEFRFSPAKDSPFEGRQSSTAAPETTEPSDSQHTDL | soluble
MRFFNKYKLFLDCAYKHLNIVLLDFKTNTVVDQLTIPVQQNLTELAVYHLEKLLKKNKVRNNTVRQFYVTTGPGSFTGQRVGAIIAKTWCTVNPNCQLFALNSLRLQIPYGCGISKISAGNEKNYCGLFTETTSEIALLAKPDFVKLCKANTELPVYENFENIDSIEELFLNNIERFELVENPQNLELLYLKDPVN | soluble
MRFKAELMNAPEMRRALYRIAHEIVEANKGTEGLALVGIHTRGIPLAHRIARFIAEFEGKEVPVGVLDITLYRDDLTEIGYRPQVRETRIPFDLTGKAIVLVDDVLYTGRTARAALDALIDLGRPRRIYLAVLVDRGHRELPIRADFVGKNVPTSRSEVVKVKVEEVDGEDRVELWEREGA | soluble
MRGPAPMPDTSLSTFLARPAPTILVEIEAVKGSSPREAGTFMLVSQEALWETIGGGQFEYMAIDHARAMLRTGAAEDRMDIPLGPEIGQCCGGRTLIRFRLITAEIAATLEARLKGEAEQQPAVFIFGAGHVGKALADALSLLPLTLKVVETRESELRDIPAGIASILTPMPEAFVQKIPANGAAIIVTHDHALDFLIAKEALARDDLAYVGMIGSKTKRATFAHWLEREGEPPSRLAKLTLPIGGTGVRDKRPAVIAALVAAELLQAFSVAETRRSENRHDHPQGQDRA | not soluble
MRGRWPYEEKPLIVFWESTKACLLACKHCRAEALTEPQPGELSTREALALVDQVVEFGRPYPILVITGGDPLMRRDFWRILEYAVSQGLRVAVAPSVTPLLTREVVRRMARMGVARISISIDSGLPEVHDAIRGVPGTFKASVNIVREALAAGLPVQINTTVMKPTVDSLPETLKLLLDLGVDVWEVFYVVPTGRAARILDLTPSEWEDVSNYLYDASRYGVLVRTVEGPMFRRIALTRRLLENMGLDWRNR | not soluble
MRGSHHHHHHGKQLTILGSTGSIGCSTLDVVRHNPEHFRVVALVAGKNVTRMVEQCLEFSPRYAVMDDEASAKLLKTMLQQQGSRTEVLSGQQAACDMAALEDVDQVMAAIVGAAGLLPTLAAIRAGKTILLANKESLVTCGRLFMDAVKQSKAQLLPVDSEHNAIFQSLPQPIQHNLGYADLEQNGVVSILLTGSGGPFRETPLRDLATMTPDQACRHPNWSMGRKISVDSATMMNKGLEYIEARWLFNASASQMEVLIHPQSVIHSMVRYQDGSVLAQLGEPDMRTPIAHTMAWPNRVNSGVKPLDFCKLSALTFAAPDYDRYPCLKLAMEAFEQGQAATTALNAANEITVAAFLAQQIRFTDIAALNLSVLEKMDMREPQCVDDVLSVDANAREVARKEVMRLASSACDLGTPGRPAAKLN | soluble
MRGSHHHHHHGMASHITYDLPVAIEDILEAKKRLAGKIYKTGMPRSNYFSERCKGEIFLKFENMQRTGSFKIRGAFNKLSSLTEAEKRKGVVACSAGNHAQGVSLSCAMLGIDGKVVMPKGAPKSKVAATCDYSAEVVLHGDNFNDTIAKVSEIVETEGRIFIPPYDDPKVIAGQGTIGLEIMEDLYDVDNVIVPIGGGGLIAGIAIAIKSINPTIKVIGVQAENVHGMAASYYTGEITTHRTTGTLADGCDVSRPGNLTYEIVRELVDDIVLVSEDEIRNSMIALIQRNKVITEGAGALACAALLSGKLDSHIQNRKTVSIISGGNIDLSRVSQITGLVDA | soluble
MRGSHHHHHHGSALSNKFIGDDMKMTYHMDGCVNGHYFTVKGEGNGKPYEGTQTSTFKVTMANGGPLAFSFDILSTVFKYGNRCFTAYPTSMPDYFKQAFPDGMSYERTFTYEDGGVATASWEISLKGNCFEHKSTFHGVNFPADGPVMAKKTTGWDPSFEKMTVCDGILKGDVTAFLMLQGGGNYRCQFHTSYKTKKPVTMPPNHVVEHRIARTDLDKGGNSVQLTEHAVAHITSVVPF | soluble
MRGSHHHHHHGSPPAAPITLWTGPGPSINGFINDTPVIRCFICLTRDSNLVTVNASFVGEGGYRIVSPTQSQFSLIMEFDQFGQLMSTGNINSTTTWGEKPWGNNTVQPRPSHTWKLCMPNREVYSTPAATISRCGLDSIAVDGAPSRSIDCMLIINKPKGVATYTLTFRFLNFNRLSGGTLFKTDVLTFTYVGENQ | soluble
MRGSHHHHHHTDPALRARNRTLADLDRVVALGGGHGLGRVLSSLSSLGSRLTGIVTTTDNGGSTGRIRRSEGGIAWGDMRNCLNQLITEPSVASAMFEYRFGGNGELSGHNLGNLMLKALDHLSVRPLEAINLIRNLLKVDTHLIPMSEHPVDLMAIDDQGHEVYGEVNIDQLTTPIQELLLTPNVPATREAVHAINEADLIIIGPGSFYTSLMPILLLKEIAQALRRTPAPMVYIGNLGRELSLPAANLKLESKLAIMEQYVGKKVIDAVIVGPKVDVSAVKERIVIQEVLEASDIPYRHDRQLLHNALEKALQALGGLCGR | soluble
MRGSHHHHHHTDPALRATIWVDADACPNVIKEILYRAAERMQMPLVLVANQSLRVPPSRFIRTLRVAAGFDVADNEIVRQCEAGDLVITADIPLAAEAIEKGAAALNPRGERYTPATIRERLTMRDFMDTLRASGIQTGGPDSLSQRDRQAFAAELEKWWLEVQRSRGGLCGR | soluble
MRGSMGAMHVLTLDLAPVTPKDAPLLHRVFHLSPSYFALIGMELPTLEDVVRDLQTLEVDPRRRAFLLFLGQEPVGYLDAKLGYPEAEDATLSLLLIREDHQGRGLGRQALERFAAGLDGVRRLYAVVYGHNPKAKAFFQAQGFRYVKDGGPTLTWYVRPL | soluble
MRHSFFCIDSHTCGNPVRLVAGGGPLLPHLPISERRDLFVRNHDWVRQALMFEPRGHDIMSGAVIYPAYRDDCDFAVIFIEVSGCLPMCGAGTIGLVTAAIEEGLVTPRIPGRLSIETPAGKVDIQYDKPGEFVESVRIFNVASYLHAADVEVNVPGLGKLVVDIAYGGNYYAVIEPQVGWPGLDGMTAGDVVDLSQKLRDALGTICDPVHPDDERIRGVHHAIWCDRPVSAEADGRGAVFYGDKAIDRSPGGTGTSARMAQLHGKGRLKAGETFRQESLIGTIFEGKVEEETTVGSFSGIRPSIGGWARIIGHNTIFVDDRDPLAHGFQVRLEHHHHHH | not soluble
MRHTLPIAPQFYVTAPQSCPYLEGRLERKLFTALQGEHAQKLNDTLSKQGFRRSQNVLYRPSCAECSACLSARIRVADFEPTRTQRRVMKRNADLRRNATSPWATEDQYALFRRYLDDRHADGGMADMDIFEFAAMIEETPIRSRVIEYSRPGDTPSNRPLSAVCLTDIFDDGLSMVYSFYDPDLAGRSLGAYVILDHIEIAREAGLPYVYLGYWVPGSRKMGYKATYSALEIYKGGRWQAIGQPSDHRAELHPLSVDPIAEQVARISLPEARSGDRSRDLEHHHHHH | not soluble
